Test results: patent US20120208238A1
Substitutions are numbered along the chain they refer to. In names and notes the source's numbering stands. Values belong to the binder of their own block, whether it stands above or below them.

Experiments:
[1] = target: soluble human FcγRIIa^R131-GST (human) (UniProt P12318); test: SPR; ratio of the Kd for FcγRIIb-GST over that for FcγRIIa-GST
[2] = target: soluble human FcγRIIa^R131-GST (human) (UniProt P12318); test: SPR (BIAcore 3000), antibody on CM5 chip, soluble dimeric receptor-GST injected, bivalent analyte model
[3] = target: soluble human FcγRIIb-GST (human) (UniProt P31994); test: as above
[4] = target: soluble human FcγRIIa^R131-GST (human) (UniProt P12318); test: flow cytometry of E. coli spheroplasts displaying the full length IgG, 20 nM FcγRIIa-GST-Alexa488 in the presence of 100 nM unlabelled FcγRIIb-GST

Chain of soluble human FcγRIIa^R131-GST (human) (P12318 34-217 H167R): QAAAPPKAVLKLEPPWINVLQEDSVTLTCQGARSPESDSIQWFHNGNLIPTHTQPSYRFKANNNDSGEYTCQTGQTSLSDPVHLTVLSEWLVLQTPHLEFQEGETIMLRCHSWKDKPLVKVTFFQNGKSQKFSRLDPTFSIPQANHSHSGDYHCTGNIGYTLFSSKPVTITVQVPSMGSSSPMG
Chain of soluble human FcγRIIb-GST (human) (P31994 43-217): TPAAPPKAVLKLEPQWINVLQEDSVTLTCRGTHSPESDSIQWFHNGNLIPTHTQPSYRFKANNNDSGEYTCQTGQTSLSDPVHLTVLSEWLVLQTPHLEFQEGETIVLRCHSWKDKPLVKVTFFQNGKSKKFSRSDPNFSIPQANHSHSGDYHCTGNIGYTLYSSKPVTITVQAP

KD2b/KD2a [1]: 9.6 | Kd [2]: 102 nM | koff [2]: 0.00352 s⁻¹ | kon [2]: 34600 M⁻¹ s⁻¹ | Kd [3]: 975 nM | koff [3]: 0.0194 s⁻¹ | kon [3]: 19900 M⁻¹ s⁻¹ | FACS mean value [4]: 409 | M (mean fluorescence intensity) [4]: 413
B1: aglycosylated Fc1001 trastuzumab (antibody, part only; not given: Fab (trastuzumab), IgG1, not shown: another chain or arm of the molecule)
Fc: DKTHTCPPCPAPELLGGPSVFLFPPKPKDTLMISRTPEVTCVVVDVSPEDPEVKFNWYVDGVEVHNAKTKPREKQYNGAYRVVSVLTVLHQDWLNGKEYKCKVSNKALPAPIEKTISKAKGQPREPQVYTLPPSRDELTKSQVSLTCLVKGFYPSDIAVEWVSNGQPENNYKTTPPVLDSDGSFFLYSKLTVDKSRWQQGNVFSCSVLHEALHNHYTQKSLSLSPGK
modifications: aglycosylated (T299A)

KD2b/KD2a [1]: 3.56 | Kd [2]: 389 nM | koff [2]: 0.0079 s⁻¹ | kon [2]: 20300 M⁻¹ s⁻¹ | Kd [3]: 1380 nM | koff [3]: 0.00866 s⁻¹ | kon [3]: 6260 M⁻¹ s⁻¹ | FACS mean value [4]: 277
B2: aglycosylated Fc1003 trastuzumab (antibody, part only; not given: Fab (trastuzumab), IgG1, not shown: another chain or arm of the molecule)
Fc: B1 Fc with P48H, K74E, S141N, K172E, V177M
modifications: aglycosylated (T299A)
